Measured values reported in patent US20180155451A1 (published 2018).

T1: FcγRIIb extracellular domain with C-terminal His tag (human, UniProt P31994 43-217)
T1 construct: extracellular domain; Soluble receptor expressed in FreeStyle293 cells; analyte in Biacore; also called FcgRIIb; 2b; not shown: His tag at the C terminus
T1 sequence (looked up): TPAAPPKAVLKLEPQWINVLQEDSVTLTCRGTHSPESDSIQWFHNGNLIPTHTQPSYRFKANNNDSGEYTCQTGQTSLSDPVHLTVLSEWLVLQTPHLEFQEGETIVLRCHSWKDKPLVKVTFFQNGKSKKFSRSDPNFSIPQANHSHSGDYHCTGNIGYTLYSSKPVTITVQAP

B1: GpH7-A5/GpH7-B3 variant P329_01G/GpL16-k0 (antibody, human IgG1, kappa)
heavy 1: not shown
heavy 2: not shown
light: DIVMTQSPLSLPVTPGEPASISCQASESLVHSNRNTYLHWYLQKPGQSPQLLIYKVSNRFSGVPDRFSGSGSGTDFTLKISRVEAEDVGVYYCSQNTHVPPTFGQGTKVEIERTVAAPSVFIFPPSDEQLKSGTASVVCLLNNFYPREAKVQWKVDNALQSGNSQESVTEQDSKDSTYSLSSTLTLSKADYEKHKVYACEVTHQGLSSPVTKSFNRGEC
notes: He Ab: heterodimerized anti-glypican-3 IgG1, substitution in one H chain only; also called He Ab P329G
B2: GpH7-A5/GpH7-B3 variant A327_20W/GpL16-k0 (antibody, human IgG1, kappa)
heavy 1: not shown
heavy 2: not shown
light: B1 light
notes: He Ab: heterodimerized anti-glypican-3 IgG1, substitution in one H chain only; also called He Ab A327W
B3: GpH7-A5/GpH7-B3 variant A330_03V/GpL16-k0 (antibody, human IgG1, kappa)
heavy 1: not shown
heavy 2: not shown
light: B1 light
notes: He Ab: heterodimerized anti-glypican-3 IgG1, substitution in one H chain only; also called He Ab A330V
B4: GpH7-A5/GpH7-B3 variant A330_06M/GpL16-k0 (antibody, human IgG1, kappa)
heavy 1: not shown
heavy 2: not shown
light: B1 light
notes: He Ab: heterodimerized anti-glypican-3 IgG1, substitution in one H chain only; also called He Ab A330M
B5: GpH7-A5/GpH7-B3 variant A330_07I/GpL16-k0 (antibody, human IgG1, kappa)
heavy 1: not shown
heavy 2: not shown
light: B1 light
notes: He Ab: heterodimerized anti-glypican-3 IgG1, substitution in one H chain only; also called He Ab A330I
B6: GpH7-A5/GpH7-B3 variant A330_08L/GpL16-k0 (antibody, human IgG1, kappa)
heavy 1: not shown
heavy 2: not shown
light: B1 light
notes: He Ab: substitution in one H chain only; also called He Ab A330L
B7: GpH7-A5/GpH7-B3 variant A330_09D/GpL16-k0 (antibody, human IgG1, kappa)
heavy 1: not shown
heavy 2: not shown
light: B1 light
notes: He Ab: heterodimerized anti-glypican-3 IgG1, substitution in one H chain only; also called He Ab A330D
B8: GpH7-A5/GpH7-B3 variant A330_10E/GpL16-k0 (antibody, human IgG1, kappa)
heavy 1: not shown
heavy 2: not shown
light: B1 light
notes: He Ab: heterodimerized anti-glypican-3 IgG1, substitution in one H chain only; also called He Ab A330E
B9: GpH7-A5/GpH7-B3 variant A330_13S/GpL16-k0 (antibody, human IgG1, kappa)
heavy 1: not shown
heavy 2: not shown
light: B1 light
notes: He Ab: heterodimerized anti-glypican-3 IgG1, substitution in one H chain only; also called He Ab A330S
B10: GpH7-A5/GpH7-B3 variant A330_14T/GpL16-k0 (antibody, human IgG1, kappa)
heavy 1: not shown
heavy 2: not shown
light: B1 light
notes: He Ab: heterodimerized anti-glypican-3 IgG1, substitution in one H chain only; also called He Ab A330T
B11: GpH7-A5/GpH7-B3 variant A330_16H/GpL16-k0 (antibody, human IgG1, kappa)
heavy 1: not shown
heavy 2: not shown
light: B1 light
notes: He Ab: heterodimerized anti-glypican-3 IgG1, substitution in one H chain only; also called He Ab A330H
B12: GpH7-A5/GpH7-B3 variant A330_18N/GpL16-k0 (antibody, human IgG1, kappa)
heavy 1: not shown
heavy 2: not shown
light: B1 light
notes: He Ab: heterodimerized anti-glypican-3 IgG1, substitution in one H chain only; also called He Ab A330N
B13: GpH7-A5/GpH7-B3 variant A330_20W/GpL16-k0 (antibody, human IgG1, kappa)
heavy 1: not shown
heavy 2: not shown
light: B1 light
notes: He Ab: heterodimerized anti-glypican-3 IgG1, substitution in one H chain only; also called He Ab A330W
B14: GpH7-A5/GpH7-B3 variant E333_01G/GpL16-k0 (antibody, human IgG1, kappa)
heavy 1: not shown
heavy 2: not shown
light: B1 light
notes: He Ab: heterodimerized anti-glypican-3 IgG1, substitution in one H chain only; also called He Ab E333G
B15: GpH7-A5/GpH7-B3 variant E333_02A/GpL16-k0 (antibody, human IgG1, kappa)
heavy 1: not shown
heavy 2: not shown
light: B1 light
notes: He Ab: heterodimerized anti-glypican-3 IgG1, substitution in one H chain only; also called He Ab E333A

target: T2, FcγRIa extracellular domain with C-terminal His tag (human, UniProt P12314 16-292); assay: SPR (Biacore); He/Con_1a divided by He/Con_2b (FcγRIIb)
T2 construct: extracellular domain; Soluble receptor expressed in FreeStyle293 cells; analyte in Biacore; also called FcgRI; FcgRIa; not shown: His tag at the C terminus
Description: (§1) The heterodimerized antibodies He Abs in which one of the H chains was introduced with an alteration were assayed for their binding activities to each activating FcγR and inhibitory FcγR according to the method described in Example 4. […] The activating FcγRs in FIGS. 26, 27, 28, and 29 are FcγRIa, FcγRIIa (R), FcγRIIa (H), and FcγRIIIa, respectively.
(§2) Analysis of interaction between objective antibody and the FcγR was carried out using Biacore T100 (GE Healthcare). HBS-EP+ (GE Healthcare) was used as the running buffer, and the measurement temperature was set to 25° C. Chips produced by immobilizing the antigen peptide by the amine coupling method to a Series S Sencor Chip CM5 (GE Healthcare), or alternatively, chips produced by allowing preliminarily biotinylated antigen peptides to interact with and immobilize onto a Series S Sensor Chip SA (certified) (GE Healthcare) were used. Antibodies of interest were captured onto an antigen peptide-immobilized chip, and allowed to interact to each FcγR diluted with running buffer. To regenerate and repeatedly use the chip, the antibodies captured on the chip were washed off by reacting 10 mM glycine-HCl, pH 1.5.

T2 sequence (P12314 16-292): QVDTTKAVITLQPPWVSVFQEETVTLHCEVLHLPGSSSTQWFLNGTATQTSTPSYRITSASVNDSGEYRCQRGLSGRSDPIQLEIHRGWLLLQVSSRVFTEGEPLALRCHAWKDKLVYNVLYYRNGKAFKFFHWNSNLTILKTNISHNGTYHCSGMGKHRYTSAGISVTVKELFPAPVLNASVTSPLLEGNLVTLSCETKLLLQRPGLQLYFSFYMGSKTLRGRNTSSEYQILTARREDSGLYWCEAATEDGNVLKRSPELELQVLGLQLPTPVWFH

He_1a/2b (Ia/IIb)	Binder
2.42	B1
1.24	B2
2.01	B3
1.3	B4
1.57	B5
1.52	B6
1.95	B7
1.53	B8
2.22	B9
1.35	B10
1.21	B11
1.67	B12
1.41	B13
1.26	B14
1.23	B15

target: T2, FcγRIa extracellular domain with …; assay: SPR (Biacore), antibody captured on antigen peptide chip, FcγR as analyte; binding relative to GpH7-A5/GpH7-B3/GpL16-k0 = 100
Description: as §1, §2

He/Con_1a (Ia binding)	Binder
101 % of control (control = 100)	B1
97.7 % of control (control = 100)	B2
106 % of control (control = 100)	B3
105 % of control (control = 100)	B4
105 % of control (control = 100)	B5
107 % of control (control = 100)	B6
109 % of control (control = 100)	B7
107 % of control (control = 100)	B8
91.5 % of control (control = 100)	B9
105 % of control (control = 100)	B10
106 % of control (control = 100)	B11
106 % of control (control = 100)	B12
108 % of control (control = 100)	B13
103 % of control (control = 100)	B14
103 % of control (control = 100)	B15

target: T1, FcγRIIb extracellular domain with …; assay: as above
Description: as §1, §2

He/Con_2b (IIb binding)	Binder
41.7 % of control (control = 100)	B1
78.8 % of control (control = 100)	B2
52.4 % of control (control = 100)	B3
80.5 % of control (control = 100)	B4
67.1 % of control (control = 100)	B5
70.5 % of control (control = 100)	B6
55.6 % of control (control = 100)	B7
70.1 % of control (control = 100)	B8
41.3 % of control (control = 100)	B9
77.9 % of control (control = 100)	B10
87.6 % of control (control = 100)	B11
63.7 % of control (control = 100)	B12
76.1 % of control (control = 100)	B13
81.4 % of control (control = 100)	B14
83.8 % of control (control = 100)	B15
